The values below come from publication PMC4721548, “Conformational heterogeneity of the Roc domains in C. tepidum Roc–COR and implications for human LRRK2 Parkinson mutations” (Bioscience Reports, 2015).

Data set [1] has as its system T1, Nc1nc2c(ncn2[C@@H]2O[C@H](COP(=O)(O)OP(=O)(O)OP(=O)(O)O)[C@@H](O)[C@H]2O)c(=O)[nH]1.
T1 construct: Roc-COR-kinase fragment, AA 1334-2147, N-terminal His-tag, expressed in Sf9 cells, Ni-NTA purified
As to the kind of experiment: multiple turnover radioactive charcoal GTPase assay, Michaelis-Menten fit. Type of data set: biochemical, Chlorobaculum tepidum. Conditions: 100 nM protein, 50 mM NaCl, 20 mM Tris/HCl, 10 mM MgCl2, 1 mM DTT, 0.5 mg/ml BSA, pH 7.5, 25°C, labelled compound (gamma-32P).

Data set [2] shares this test system. The description is as above. Type of data set: biochemical, C. tepidum. Conditions: 100 nM protein, 50 mM NaCl, 20 mM Tris/HCl, 10 mM MgCl2, 1 mM DTT, 0.5 mg/ml BSA, pH 7.5, 25°C, labelled compound (gamma-32P).

LRRK2 Roc-COR-kinase fragment (Homo sapiens), sequence (chain, as listed by the source): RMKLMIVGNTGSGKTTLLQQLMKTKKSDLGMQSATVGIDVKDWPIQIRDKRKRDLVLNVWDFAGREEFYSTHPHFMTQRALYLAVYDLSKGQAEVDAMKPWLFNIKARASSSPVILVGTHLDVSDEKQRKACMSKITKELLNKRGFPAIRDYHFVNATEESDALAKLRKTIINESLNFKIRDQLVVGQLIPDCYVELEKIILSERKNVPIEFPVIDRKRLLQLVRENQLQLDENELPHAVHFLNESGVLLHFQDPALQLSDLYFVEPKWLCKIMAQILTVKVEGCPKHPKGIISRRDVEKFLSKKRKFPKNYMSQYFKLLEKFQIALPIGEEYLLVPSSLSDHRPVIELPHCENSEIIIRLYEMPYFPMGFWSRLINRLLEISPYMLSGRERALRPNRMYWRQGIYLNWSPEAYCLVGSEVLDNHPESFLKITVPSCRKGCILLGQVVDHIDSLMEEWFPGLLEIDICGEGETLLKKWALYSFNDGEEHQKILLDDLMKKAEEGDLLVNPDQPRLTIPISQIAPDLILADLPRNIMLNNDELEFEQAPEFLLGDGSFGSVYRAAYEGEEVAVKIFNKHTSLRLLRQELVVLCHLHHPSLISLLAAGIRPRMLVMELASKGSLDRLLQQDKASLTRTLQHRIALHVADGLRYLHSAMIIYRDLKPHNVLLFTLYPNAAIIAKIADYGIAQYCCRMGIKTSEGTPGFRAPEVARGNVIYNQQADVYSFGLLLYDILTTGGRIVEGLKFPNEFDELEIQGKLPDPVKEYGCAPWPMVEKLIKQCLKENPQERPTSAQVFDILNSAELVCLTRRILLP
LRRK2 Roc-COR-kinase fragment (Homo sapiens; R1441C), sequence (chain, as listed by the source R1441C): as the sequence (chain, as listed by the source) above, with R108C counted along it

Take “LRRK2 Roc-COR-kinase fragment (Homo sapiens; R1441C)”: in data set [1], the Michaelis-Menten constant (Km) (usually the substrate concentration at which the rate is half of its maximum) was determined as 541 µM; the kcat (in general, the number of substrate molecules converted per active site and unit of time at saturation) turned out to be 0.00617 s⁻¹.
As to “LRRK2 Roc-COR-kinase fragment (Homo sapiens)”, in data set [2], the Michaelis-Menten constant (Km) is 343 µM and the kcat came out at 0.013 s⁻¹.
